From patent US12612465B2, “Formulations comprising PCSK9 specific monoclonal antibodies” (Amgen Inc., priority 2012, dated 2026)
“Also recorded” adds a separate entry of the source.

What was measured:
[1] = system: PCSK9; experiment: Serum lipids after a single subcutaneous dose in cynomolgus monkeys; assay type: in vivo, cynomolgus monkey; conditions: 0.5 mg/kg single SC
Description: Briefly, naive male cynomolgus monkeys were acclimated to their environment for at least 2 weeks prior to experimentation. Animals were randomized into treatment groups based on a pre-screen of their serum TC, HDL-C, LDL-C, and triglyceride levels, and their body weight. After 1 week, animals were fasted overnight, and bled from the peripheral vasculature (cephalic or saphenous vein), for measurement of baseline serum lipid levels at a time point designated T=0. […] Fasting blood samples were then collected from animals at designated time points over a 45 day period.
At specified time points, blood was collected from animals under overnight fasting conditions from the peripheral vasculature (cephalic or saphenous vein). Whole blood was allowed to coagulate for 30 minutes at room temperature. Following centrifugation at 3,000 rpm for 20 minutes, serum was collected. Direct serum cholesterol analysis was performed using the Cobas Integra 400 analyzer (Roche Diagnostics Inc, Indianapolis, Ind.). Apolipoprotein B serum levels were determined at specified time points (day 0, 3, 6, 15, 24 and 33) by Anilytics, Md., with the following methodology. A 17 μL aliquot of the sample (no preparation) was used for analysis with a Hitachi 717 Analyzer using a 6 points standard curve. If the initial value of the sample was higher than the standard curve linearity, then the sample was diluted and repeated with the result multiplied by the appropriate dilution factor. The reagents for the assay (APO-B Reagent Kit #86071, Antibody Set #86060, Control Set #86103) were obtained from DiaSorin (Stillwater, Minn.).
A statistical model that considers baseline as a covariate and treatment group as a fixed effect was fit to the log transformed response at each time point for LDL-C, HDL-C, TC, and triglycerides. Tukey's multiple comparison correction was applied to adjust the pair wise comparisons at each time point. The statistical significance was evaluated at alpha=0.05 using adjusted p-values.

[2] = Osmolality of 21B12 formulations; assay type: physicochemical
Description: In certain embodiments, the pharmaceutical formulation is isotonic with an osmolality ranging from between about 250 to about 350 miliosmol/kg, e.g., about 250 mOsm/kg, about 260 mOsm/kg, about 270 mOsm/kg, about 280 mOsm/kg, about 290 mOsm/kg, about 300 mOsm/kg, about 310 mOsm/kg, about 320 mOsm/kg, about 330 mOsm/kg, about 340 mOsm/kg, or about 350 mOsm/kg, and including all values in between. As used herein, “osmolality” is the measure of the ratio of solutes to volume fluid. In other words, it is the number of molecules and ions (or molecules) per kilogram of a solution. Osmolality may be measured on an analytical instrument called an osmometer, such as Advanced Instruments 2020 Multi-sample Osmometer, Norwood, Mass. The Advanced Instruments 2020 Multi-sample Osmometer measures osmolality by using the Freezing Point Depression method. The higher the osmolytes in a solution, the temperature in which it will freeze drops. Osmolality may also be measured using any other methods and in any other units known in the art such as linear extrapolation.

[3] = target: T1, PCSK9 (Homo sapiens, UniProt Q8NBP7); experiment: Phase 1 ascending single dose study in healthy subjects; assay type: in vivo
T1 construct: endogenous in cells; host or cells: human subjects, in vivo
T1 sequence (Q8NBP7 153-692): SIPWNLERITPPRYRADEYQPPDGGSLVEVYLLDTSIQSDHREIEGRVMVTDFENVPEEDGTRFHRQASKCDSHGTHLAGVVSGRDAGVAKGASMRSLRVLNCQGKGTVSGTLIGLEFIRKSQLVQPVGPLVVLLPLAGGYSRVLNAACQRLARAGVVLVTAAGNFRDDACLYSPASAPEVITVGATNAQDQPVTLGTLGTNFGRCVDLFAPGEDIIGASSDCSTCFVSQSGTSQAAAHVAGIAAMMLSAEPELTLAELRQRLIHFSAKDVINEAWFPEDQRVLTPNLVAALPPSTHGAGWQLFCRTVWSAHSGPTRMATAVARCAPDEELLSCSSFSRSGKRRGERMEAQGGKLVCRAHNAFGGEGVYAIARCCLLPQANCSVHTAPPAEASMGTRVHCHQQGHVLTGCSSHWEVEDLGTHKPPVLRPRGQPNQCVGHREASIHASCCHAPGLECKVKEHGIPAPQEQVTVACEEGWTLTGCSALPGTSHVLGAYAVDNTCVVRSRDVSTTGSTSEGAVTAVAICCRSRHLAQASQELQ

[4] = target: T2, human PCSK9 (Homo sapiens, UniProt Q8NBP7, E620G/G670E/V474I); experiment: BIAcore solution equilibrium binding assay; conditions: hPCSK9, solution equilibrium
T2 construct: made in house
T2 sequence (Q8NBP7 153-692 V474I/E620G/G670E): as the sequence (Q8NBP7 153-692) above, with V322I, E468G, G518E counted along it
Description: Flow cell 3 was used as a background control. […] Although cPCSK9 has lower protein concentration observed from KinExA assay and SDS-gel, its concentration was not adjusted here since the concentration of cPCSK9 was not used for calculation of KD. […] FIG. 5B depicts the results from the solution equilibrium assay at three different hPCSK9 concentrations for hPCSK9. FIG. 5C depicts a similar set of results for mPCSK9. FIG. 5D depicts the results from the above biacore capture assay.

[5] = target: T1, PCSK9; experiment: Aggregate data of the studies of Examples 22-25; assay type: in vivo

LDL-C nadir observed after dosing ([3]; single dose, healthy subjects): ≤ 2 weeks
suppression of PCSK9 ([3]; single doses ≥70 mg SC): Complete suppression of PCSK9
Kd [4]: 0.015 nM
reduction from baseline in LDL-C at week 12 ([5]; 140 mg Q2W): ~60%
reduction from baseline in LDL-C at week 12 ([5]; 420 mg Q4W): ~56%
dose dependent reduction from baseline in ApoB ([5]; p values<0.001): 36-53%
dose dependent reduction from baseline in non-HDL-C ([5]; p values<0.001): 36-53%
dose dependent reduction from baseline in total cholesterol ([5]; p values<0.001): 25-37%
B1: 21B12: human anti-PCSK9 monoclonal antibody, light/heavy variable region SEQ ID NO 23/49 (antibody, listed as Homo sapiens, V domains shown)
VH: QVQLVQSGAEVKKPGASVKVSCKASGYTLTSYGISWVRQAPGQGLEWMGWVSFYNGNTNYAQKLQGRGTMTTDPSTSTAYMELRSLRSDDTAVYYCARGYGMDVWGQGTTVTVSS
VL: QSALTQPASVSGSPGQSITISCTGTSSDVGGYNSVSWYQQHPGKAPKLMIYEVSNRPSGVSNRFSGSKSGNTASLTISGLQAEDEADYYCNSYTSTSMVFGGGTKLTVL
LDL-C returned to levels similar to control animals [1]: ≤ 6 days
TC returned to levels similar to control animals [1]: ≤ 4 days
maximal LDL-C lowering as compared to control animals [1]: 64%
maximal TC lowering as compared to control animals [1]: 20%
maximal lowering of LDL-C vs anti-KLH IgG2 control at the same time point (change) [1]: −64%
serum HDL-C vs anti-KLH IgG2 control [1]: statistically significant change in HDL-C at a single time point (day 18 following injection); also recorded: lowered HDL-C at a single time point, 18 days after injection
time of maximal LDL-C lowering after injection [1]: 3 days
time of maximal TC lowering after injection [1]: 3 days
triglycerides levels vs anti-KLH IgG2 control [1]: No statistically significant changes
serum ApoB vs anti-KLH IgG2 control ([1]; days 3, 6, 15, 24 and 33): statistically significant lower ApoB levels at day 3 only
Osmolality ([2]; 73 mg/mL, 10 mM Na acetate, pH 5.2 +3% proline): 253 mOsmol/kg
Osmolality ([2]; 76 mg/mL, 10 mM Na acetate, pH 5.2): 53 mOsmol/kg
Osmolality ([2]; 116 mg/mL, 10 mM sodium acetate, pH 4.8, 50 mM methionine + 2% benzyl alcohol): 329 mOsmol/kg
Osmolality ([2]; 116 mg/mL, 10 mM sodium acetate, pH 4.8, 150 mM arginine): 241 mOsmol/kg
Osmolality ([2]; 116 mg/mL, 10 mM sodium acetate, pH 4.8, 1.5% proline + 1% benzyl alcohol): 277 mOsmol/kg
Osmolality ([2]; 116 mg/mL, 10 mM sodium acetate, pH 4.8, 2% proline + 1% benzyl alcohol): 313 mOsmol/kg
Osmolality ([2]; 116 mg/mL, 10 mM sodium acetate, pH 4.8, no excipient): 72 mOsmol/kg
Osmolality ([2]; 117 mg/mL, 10 mM Na acetate, pH 4.5): 59 mOsmol/kg
Osmolality ([2]; 122 mg/mL, 10 mM Na acetate, pH 5.2 +3% proline): 274 mOsmol/kg
Osmolality ([2]; 130 mg/mL, 10 mM Na acetate, pH 5): 59 mOsmol/kg
Osmolality ([2]; 148 mg/mL, 10 mM Na acetate, pH 5.2 +3% proline): 301 mOsmol/kg
Osmolality ([2]; 154 mg/mL, 10 mM Na acetate, pH 5.2): Did not freeze
Osmolality ([2]; […], 10 mM Na acetate, pH 4): 59 mOsmol/kg
Osmolality ([2]; […], 10 mM Na acetate, pH 5.2 +150 mM NaCl): 346 mOsmol/kg
Osmolality ([2]; […], 10 mM Na acetate, pH 5.2 +3% proline): 252 mOsmol/kg
Osmolality ([2]; […], 10 mM Na acetate, pH 5.5): 64 mOsmol/kg
Osmolality ([2]; […], 10 mM Na acetate, pH 5.5 +150 Mm methionine and 3% benzyl alcohol): 520 mOsmol/kg
median AUC0-inf ([3]; 420 mg IV): 1550 µg·days/mL
median maximum observed concentration (Cmax) ([3]; 420 mg IV): 139 µg/mL
anti-21B12 antibodies in serum ([3]; all 42 subjects who received 21B12): negative for anti-21B12 antibodies
subjects with treatment-emergent adverse events ([3]; any dose, 29 of 42 subjects): 69%
effects on laboratory variables, ECGs, vital signs ([3]; human, in vivo): no trends indicative of clinically important effects
